Residue numbers refer to the chain shown, from its start. Entries after “also recorded” stand apart in the source; their conditions may differ.
T1: α11β1 I Domain (Homo sapiens, UniProt Q9UKX5)
T1 sequence (Q9UKX5 164-345 limits assumed): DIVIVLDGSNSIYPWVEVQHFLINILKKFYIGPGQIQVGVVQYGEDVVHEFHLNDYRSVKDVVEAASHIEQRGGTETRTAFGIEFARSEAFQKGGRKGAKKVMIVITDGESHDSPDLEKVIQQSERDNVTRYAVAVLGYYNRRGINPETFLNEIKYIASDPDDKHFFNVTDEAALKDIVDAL

T2: adhesion of CHO-K1 cells expressing human α11 to rat tail type I collagen (Homo sapiens, UniProt Q9UKX5)
T2 construct: expressed in transfected cells; host or cells: CHO-K1
T2 sequence (Q9UKX5 23-1188): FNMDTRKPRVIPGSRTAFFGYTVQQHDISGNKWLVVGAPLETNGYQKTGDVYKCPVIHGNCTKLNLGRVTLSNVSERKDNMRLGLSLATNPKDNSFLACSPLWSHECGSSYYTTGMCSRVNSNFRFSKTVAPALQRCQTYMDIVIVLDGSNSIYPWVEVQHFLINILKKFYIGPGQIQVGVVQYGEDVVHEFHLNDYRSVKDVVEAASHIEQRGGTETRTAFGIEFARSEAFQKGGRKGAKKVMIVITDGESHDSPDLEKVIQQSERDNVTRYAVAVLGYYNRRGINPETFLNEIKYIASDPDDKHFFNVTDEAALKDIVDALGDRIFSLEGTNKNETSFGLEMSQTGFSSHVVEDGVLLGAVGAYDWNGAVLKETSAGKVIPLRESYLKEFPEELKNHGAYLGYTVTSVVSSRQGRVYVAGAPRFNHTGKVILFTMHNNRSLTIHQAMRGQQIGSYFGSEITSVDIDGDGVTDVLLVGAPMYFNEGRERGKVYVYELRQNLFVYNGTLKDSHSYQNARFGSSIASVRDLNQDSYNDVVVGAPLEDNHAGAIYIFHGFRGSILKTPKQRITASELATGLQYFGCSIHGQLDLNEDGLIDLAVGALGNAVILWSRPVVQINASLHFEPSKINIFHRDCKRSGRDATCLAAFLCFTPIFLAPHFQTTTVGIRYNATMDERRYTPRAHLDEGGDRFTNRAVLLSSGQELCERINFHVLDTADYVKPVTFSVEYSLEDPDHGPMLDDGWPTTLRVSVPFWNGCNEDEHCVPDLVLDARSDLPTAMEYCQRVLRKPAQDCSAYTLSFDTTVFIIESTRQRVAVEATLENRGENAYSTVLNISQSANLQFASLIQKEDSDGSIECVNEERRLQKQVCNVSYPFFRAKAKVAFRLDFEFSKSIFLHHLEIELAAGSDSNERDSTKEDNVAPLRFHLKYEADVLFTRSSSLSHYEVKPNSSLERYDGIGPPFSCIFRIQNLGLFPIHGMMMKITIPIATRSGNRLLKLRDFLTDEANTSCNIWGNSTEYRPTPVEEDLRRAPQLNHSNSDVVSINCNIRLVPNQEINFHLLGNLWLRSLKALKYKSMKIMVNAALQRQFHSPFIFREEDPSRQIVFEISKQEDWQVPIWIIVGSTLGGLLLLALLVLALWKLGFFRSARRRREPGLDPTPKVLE

B1: 8-I14: mouse anti-α11β1 mAb; VH SEQ ID NO: 109, VL SEQ ID NO: 110 (antibody, V domains shown)
VH: EVQLQQSGPELVKPGASVKKSCKASGYTFTDYYMHWVKQKPGQGLEWIGKIYPGSGNTHYNEKFKGKATLTADKSSSTAYMQLSSLTSEDSAVYFCATNYYGYRAMNYWGQGSSVTVSS
VL: DIHLTQSPSSLSASLGERISLTCRASQDIYISLNWFQQKPDGTIKLLIYGTSSLDSGVPKRFSGSRSGSDYSLTISSLESEDFADYYCLQYASSPYTFGGGTKLEIK
B2: 24E4G6: rat anti-α11β1 mAb; VH SEQ ID NO: 147, VL SEQ ID NO: 148 (antibody, V domains shown)
VH: MELELSLIFIFSLLKDVQCEVQLVESGGSLVQPGGSLKLSCVASGYTFSNYWMDWVRQSPGKSLEWIGEINTDGRRTNYAPSIKDRFTISRDNAKSTLYLQMSNVKSDDTAIYYCTILRVYPHYFDYWGQGVMVTVSS
VL: MMSPAQFLFLLMLWIQEARGDVVMTQTPPSLSVAIGQSVSISCKSSQSLVYSDGETYLHWFLQSPGRSPKRLIYHVSNLGSGVPDRFSGTGSLTDFTLRISRVEAEDLGVYYCAQTTHFPPTFGAGTKLELK
B3: 8H8E9: rat anti-α11β1 mAb; VH SEQ ID NO: 149, VL SEQ ID NO: 150 (antibody, V domains shown)
VH: MAVLVLLLCLVTFPSCALSQVQLKESGPGLVQPSQTLSLTCTVSGFSLTSNSVSWVRQAPGKGLEWMGAIWSGGSTDYNSALKSRLSISRDTSKSQVFLKMNSLQTEDTAIYFCTRSHWEPFDYWGQGVMVTVSS
VL: MESQTQALISLLLWVYGTCGDIVMTQSPFSLAVSEGEMVTINCKSSQGLLSSGNQKNYLAWYQQRPGQSPKLLIYYASTRQSGVPDRFIGGGSGTDFTLTISDVQAEDLADYYCLQHYSYPPTFGSGTKLEIK
B4: 6E5C11: rat anti-α11β1 mAb; VH SEQ ID NO: 151, VL SEQ ID NO: 152 (antibody, V domains shown)
VH: B3 VH with K24R, S54T, A59P, G73D, A81T, N102S
VL: B3 VL with F29L, M38T, I41M, G48S, L50F, R65K, G91S, A106T, S119N
B5: 1994_01_D12: fully human anti-α11β1 mAb from phage display; HCDR3 SEQ ID NO: 267, LCDR3 SEQ ID NO: 334 (antibody, V domains shown)
VH: QVQLVQSGAEVKKPGSSVKVSCKASGYTFTSYGISWVRQAPGQGLEWMGWISAYNGNTNYAQKLQGRVTMTTNTSTSTAYMELRSLRSDDTAVYYCARVTGITGTTIDPWGQGTLVTVSS
VL: DIQMTQSPSSLSASVGDRVTITCRASQSISSYLNWYRQKPGKAPKLLIYAASSLQSGVPSRFSGSGSGTDFTLTISSLQPEDAATYYCQQYDSQSGTFGQGTKLEIK
B6: 9-E16: mouse anti-α11β1 mAb; VH SEQ ID NO: 111, VL SEQ ID NO: 112 (antibody, V domains shown)
VH: EVQLQQSGPELVKPGASVKISCKASGYTFTDYYMHWVKQKPGQGLEWIGEIYPGSGNPYYNEKFKGKATLTADKSSSSAYMQLSSLTSEDSAVYFCARTSYGRVGTGFAYWGQGTLVTVSA
VL: NFVMTQTPLSLPVSLGDQASISCRSSQSLLHSNGNTYLHWYLQKPGQSPKLLIYKVSNRFSGVPDRFSGSGSGTDFTLKINRVETEDLGIYFCSQSSHVPTFGAGTKLELK
B7: 9-G05: mouse anti-α11β1 mAb; VH SEQ ID NO: 103, VL SEQ ID NO: 104 (antibody, V domains shown)
VH: EVQLQQSGPELVKPGASVKIPCKASGYTFPDYNMDWVKQSHGKSLEWIGYINPDNGGTIYNQKFKGKATLTVDKSSSTAYMELRSLTSEDTAVYYCARLDSSGYGYYAMDYWGQGTSVTVSS
VL: DIVLTQSPASLAVSLGQRATISCRASESVDNYGISFMHWYQQKPGQPPKLLIYRASNLDSEIPARFSGSGSRTDFTLTIDPVETDDVATYYCQQSYKDPRTFGGGTKLEIK

What was measured:
[1] = system: CHO-K1 human α11-mediated rat tail type I collagen gel contraction; assay: Collagen gel contraction assay; type: cell-based; conditions: compared to untreated condition
Experimental: 24-well plates were blocked with 2% BSA in PBS overnight at 37° C. The following day, the plates were washed 3 times with PBS before being used in the assay. Human CHO cell lines expressing α11 were harvested and resuspended at 1.25×10^6 in ExpiCHO Expression Medium (Gibco™ Cat #A2910002). The collagen gel solution was prepared by diluting 3 mg/mL stock collagen type I (Gibco™ Collagen I Rat Protein, Tail Cat #A1048301) to 1 mg/mL in the media containing the CHO cells. Sodium hydroxide was added to the solution to neutralize the pH and 400 μL of the collagen solution was added to each well of the 24-well plates. For the wells where the antibodies were included in the collagen gel solution, CHO cells were prepared at 2.5×10^6 and the antibodies were prepared at 2× final concentration in ExpiCHO media. The cells and antibodies were then combined 1:1 before the addition of the stock collagen type 1. The gels were allowed to polymerize for 60 minutes at 37° C. Antibodies were added to the ExpiCHO media, which was then layered on top of the polymerized gel (400 μL/well). The gels were incubated for 6 days at 37° C. before gel contraction was quantified. Images of each well were analyzed using Image J and gel contraction was determined as a percentage of the initial gel area.
Selected exemplary antibodies were tested for the ability to inhibit cell-mediated 3D gel contraction because this ability is directly linked to the functionality of the exemplary antibodies.

[2] = biological target: T1, α11β1 I Domain; assay: ELISA binding to in-house generated α11β1 I domain; set-up: An in-house generated I domain of α11β1 was used; made in house; conditions: in words
Experimental: 0.25 μg/mL of target antigen (recombinant human or mouse α11β1) was plated in a 96-well plate over night at 4° C. Plates were washed (PBS with 0.1% Tween-20), blocked (PBS with 2% BSA and 0.05% Tween-20) for 1 hour at room temperature and incubated with a range of antibody concentrations for 1 hour at room temperature. Subsequently, plates were washed and incubated with biotinylated anti-rabbit/mouse/human IgG in a 1:1000 dilution buffer and incubated for 1 hour at room temperature. After washing the plates, Streptavidin HRP was added at 1:200 in dilution buffer and incubated for 1 hour at room temperature. Ultra TMB ELISA substrate solution was added and the plates incubated for 5 minutes on a plate shaker. The reaction was stopped by adding stop solution to each well and plates were read at 450 nm.
Data was also collected to determine whether antibodies of interest bind to the I domain of α11β1. An in-house generated I domain of α11β1 was used. […] Mouse antibodies 10-F23, 10-L15, 7-O8, 6-A12, 9-G05 and 9-E16 and rabbit antibodies 7-H12 and 2-D3 were also tested for binding against the in-house generated α11β1 I domain. FIGS. 3A and 3B show graphs illustrating binding data from exemplary mAbs.

[3] = biological target: T2, adhesion of CHO-K1 cells expressing human α11 to rat tail type I collagen; assay: Cell adhesion inhibition (CHO-K1 hu α11 cells to type I collagen, xCelligence); type: cell-based; conditions: in words
Experimental: 0.6×10^6 cells/mL were incubated with each antibody at a range of concentrations for 20 minutes at 37° C. E-Plate VIEW 96 PET plate coated with 100 ng/ml type I collagen or PBS overnight at room temperature was blocked in 3% BSA for 1 house at room temperature. After washing the plate with PBS, cell and antibody mixture was added to the wells and the plate was places into an xCelligence machine. Cell adhesion was recorded over 6 hours. The time point of maximum cell adhesion was used for comparison relative to control.
A CHO-K1 hu α11 cell line was used to assess the ability of mAbs to block α11β1-mediated binding to type I collagen. […] In the “Untreated” condition, cells were plated on type I collagen but no antibody was added and in the “Uncoated” condition, cells were seeded onto BSA-coated wells containing no type I collagen. Statistics were performed using one-way ANOVA followed by Dunnett's multiple comparisons test. […] Therefore, it is possible that these mAbs bind on an α11β1 domain that keeps the integrin in a low or intermediate affinity state. […] Nine human mAbs were also tested for their ability to inhibit the binding of human CHO-α11 cells to type I collagen.

[4] = biological target: T1, α11β1 I Domain; assay: SPR binding to α11β1 I Domain; conditions: in words
Experimental: The affinity of antibodies for human α11β1 was measured by surface plasmon resonance assay (SPR). Affinity was measured at pH 7.6 and 25° C. with a Biacore T200 instrument. Anti-HIS antibody was immobilized on the SPR sensor surface using EDC/NHS covalent attachment. HIS-tagged human α11β1 was captured on the sensor surface and a single-cycle kinetics assay was used. Increasing concentrations of test antibody were injected in series over the sensor-bound α11β1. Dissociation was monitored for 1000 seconds. A sensor surface with only anti-HIS antibody and a series of blank injections were used to double-reference subtract the data. A 1:1 Langmuir model was fit to the data to estimate the kinetic association and dissociation constants. The affinity (equilibrium dissociation constant) of the interaction was calculated by dividing the kinetic dissociation constant by the kinetic association constant. Between injection cycles α11β1 and bound antibody were removed with an injection of 10 mM glycine at pH 1.5.
The binding affinity of antibodies for the α11β1 Headpiece and α11β1 I Domain as measured by SPR is shown in FIG. 10A and FIG. 10B, respectively.

| Molecule | Inhibition of CHO-hu α11-mediated collagen gel contraction [1] | Binding to the I domain of α11β1 [2] | Inhibition of cell adhesion to type I collagen [3] | Binding to α11β1 I domain (SPR) [4] |
| --- | --- | --- | --- | --- |
| B1 | inhibited | – | – | – |
| B2 | – | did not bind to the I-domain | – | – |
| B3 | – | medium | – | – |
| B4 | – | low | – | – |
| B5 | inhibited | – | – | – |
| B6 | inhibited | I-domain binders; also recorded: bound the I domain | decrease cell adhesion to collagen | – |
| B7 | inhibited | I-domain binders; also recorded: bound the I domain | decrease cell adhesion to collagen | do bind |

— patent publication US20240317865A1, “ANTIBODIES AGAINST INTEGRIN ALPHA 11 BETA 1” (MOMENTA PHARMACEUTICALS, INC., priority 2020, published 2024)
